Assay results from patent US5624904A, “Method for treating gram positive septicemia” (Massachusetts Institute of Technology, priority 1993, dated 1997).

Experiments:
soluble MSRP = test: bead-binding competition assay: ligands interfering with binding of labeled soluble receptor to poly G beads, M-BSA beads or LTA; conditions: inhibitor at 400 μg/ml
Protocol: The ability of the soluble MSRP to block scavenger receptor-mediated cellular metabolism of known MSRP ligands, such as radiolabeled endotoxin, whole Gram-positive bacteria, or LTA, is measured by competitive inhibition assays. […] This bead-binding assay can be used to measure the association of endotoxin, lipid IVA, LTA, and similar molecules, to soluble forms of the MSRP.

Enterococcus hirae = test: microbial binding assay (whole cell assay) of [35S]s-bSR-I
Protocol: (§1) Gram-positive bacteria were grown overnight either on LB agar plates (L. monocytogenes, B. subtilis) or on 5% sheep blood agar plates (all other organisms). Fresh colonies were inoculated into Todd Hewitt Broth (DIFCO) and were grown to stationary phase (16-18 hours; 1×10^9 CFU/1 ml) at 37° C. without shaking. Initial experiments indicated greater binding of MSRP to organisms grown to stationary phase compared to organisms used at log phase. Thus, stationary phase organisms were used in all experiments, although results were similar for log phase organisms.
(§2) All bacterial strains were harvested by centrifugation at 3500×g for 10 minutes and washed twice in cold Buffer B (20 mM Tris base at pH 8.0/150 mM NaCl/0.05% NAN3) before resuspending to a final density of approximately 1×10^9 bacteria/ml (O.D.600 =2.0).
(§3) [^35 S]methionine-labeled conditioned medium was prepared from transfected CHO[s-bSRI]-A2 cells and untransfected CHO cells. The media were designated [^35 S]s-bSR-I medium (containing s-bSR-I) and [^35 S]control medium (containing no s-bSR-I) respectively. As described by D. Resnick et al., 268 J. Biol. Chem. 3538-3545 (1993), CHO[s-bSR-1]-A2 and untransfected CHO cells were plated at a density of 9×10^5 cells/100 mm dish in medium B. Cells were grown to 80% confluence (approximately 48 hours), washed, and metabolically labeled by addition of 4.5 ml of medium A prepared with methionine- and cysteine-freeHam's F-12 and supplemented with 0.2 mM L-cysteine, and 80 μCi/mi [^35 S]methionine (Trans ^35 S-label with 70% methionine, purchased from ICN Biomedicals, Irvine, Calif.). After a 5 hour incubation at 37° C., supernatants were collected, and protease inhibitors and Buffer A+BSA (20 mM Tris base at pH 8.0/150 mM NaCl/1 mM CaCl2; containing 2 mg/ml bovine serum albumin and 0.05% NAN3) were added at final concentrations of 1 mM phenylmethylsulfonylfluoride (PMSF) (Sigma, St. Louis, Mo.), 1 μM leupeptin (Sigma), and 1 μM pepstatin (Sigma); 2:1 volume ratio of supernatant to buffer. The samples were then clarified by centrifugation (1000×g, 15 minutes, 4° C.) and stored in Falcon 2099 tubes that had been precoated with Buffer A+BSA.
(§4) Thirty minutes prior to binding assays, unlabeled L-methionine ((Sigma, St. Louis, Mo.) at 10 mM final concentration was added to suspensions of microorganisms grown as described above to minimize incorporation of free [^35 S]methionine into microbial proteins during the assays. One ml assay mixtures containing 200 μl of bacterial suspension (approximately2×10^8 bacteria), 50 μl of Buffer A (20 mM Tris base at pH 8.0/150 mM NaCl/1 mM CaCl2), and 750 μl of either [^35 S]s-bSR-I or [^35 S]control medium were prepared in microcentrifuge tubes and incubated overnight on a rotator at 4° C. Maleylated bovine serum albumin (M-BSA) was coupled to CNBr-activated Sepharose™ (Pharmacia Fine Chemicals, Piscataway, N.J.) at approximately 3 mg M-BSA/mi hydrated resin. Suspensions of M-BSA-coupled Sepharose™ beads (M-BSA beads) (25 μl ) were used in place of microorganism suspensions as positive controls.
(§5) After the overnight incubation, the bacteria or beads were pelleted by centrifugation in a microcentrifuge at 12,500×g for 5 minutes at 4° C. and washed twice with cold buffer A. In experiments examining the ability of LTA to inhibit the binding of the s-bSR-I to M-BSA beads, the beads were allowed to settle by gravity before each washing step, to prevent pelleting of LTA micelies. The washed pellets were then resuspended in SDS-PAGE sample buffer containing 2% β-mercaptoethanol, boiled for 5 minutes, and insoluble material was removed by centrifugation at 12,500×g for 2 minutes. The reduced samples were fractionated by electrophoresis through 10% polyacrylamide gels, as described by Resnick et al. (1993), and the labeled proteins were visualized by autoradiography with Kodak X-AR film. […]

Streptococcus agalactiae = test: as above
Protocol: as §1, §2, §3, §4, §5

Streptococcus pyogenes = test: as above
Protocol: as §1, §2, §3, §4, §5

Gram-positive bacteria = test: microbial binding assay (whole cell assay), all species and strains of Table I; conditions: for binding of [35S]s-bSR-I to Gram-positive bacteria: all species and strains tested (Table I)
Protocol: as §1, §2
as §3, with “The samples were then clarified by centrifugation (1000×g, 15 minutes, 4° C.) and stored in Falcon 2099 tubes that had been precoated with Buffer A+BSA.” left out

P388D1 cells = test: cell binding assay: FITC-labeled S. pyogenes T1/195/2 bound to macrophage-like cells expressing MSRP; format: cell-based, murine; conditions: 30 minutes 37° C., mean ± SD of three experiments, without poly G 72±8
Protocol: The ability of poly G to inhibit S. pyogenes binding was used in experiments to examine the interaction of FITC-labeled pyogenes (strain T1/195/2) with a cultured murine macrophage-like cell line, P388D1, shown previously to express MSRP by J. Ashkenas et al., 34 J. Lipid Res. 983-1000 (1993).
P388D1 cells were maintained in dishes in Ham's F-12 with 10% fetal calf serum, 100 units/ml penicillin, and 100 μg/ml streptomycin. For experiments, approximately 12,500 cells were plated on 1 cm glass cover slips, in media lacking antibiotics. Cells were allowed to adhere for at least 24-36 hours, then washed in Ham's F-12 containing 10% fetal calf serum. S. pyogenes, either unlabeled or FITC-labeled, was added (final dilution of 1:250 from a stock solution of O.D.600 =1.0) in the presence or absence of varying concentrations of poly G. Mixtures were incubated for 30 minutes at 37° C. in 5% CO2, then washed three times in PBS, and fixed with 100% cold methanol. Samples containing non-FITC labeled organisms were Gram-stained, then cover slips were mounted with Moviol and DAPCO. Slides were viewed in blinded fashion by two observers using fluorescence and phase contrast microscopy and a Nikon Microphot FXA epifluorescence microscope. The results (bacteria bound per 100 P388D1 cells) represent the means ± standard deviations determined from three experiments in which at least 100 P388D1 cells were counted for each condition.

Bacillus subtilis = test: microbial binding assay (whole cell assay) of [35S]s-bSR-I
Protocol: as §1, §2, §3, §4, §5

Listeria monocytogenes = test: as above
Protocol: as §1, §2, §3, §4, §5

Staphylococcus aureus = test: as above
Protocol: as §1, §2, §3, §4, §5

Streptococcus mutans = test: as above
Protocol: as §1, §2, §3, §4, §5

S. pneumoniae = test: as above; design: species or system Streptococcus pneumoniae; conditions: two encapsulated and one rough strain
Protocol: as §1, §2
[^35 S]methionine-labeled conditioned medium was prepared from transfected CHO[s-bSRI]-A2 cells and untransfected CHO cells. The media were designated [^35 S]s-bSR-I medium (containing s-bSR-I) and [^35 S]control medium (containing no s-bSR-I) respectively. […]

## polyGuanosine [poly G, reference compound]
Soluble MSRP
  competition with binding of labeled soluble receptor to poly G beads, M-BSA beads, or LTA: successful competitors
Enterococcus hirae; 400 μg/ml poly G
  competition with binding of receptor to Enterococcus hirae: competed
Streptococcus agalactiae; 400 μg/ml poly G
  competition with binding of receptor to S. agalactiae: competed
Streptococcus pyogenes; poly G 400 μ/ml added to assay mixture
  competition with binding of S. pyogenes to s-bSR-I: effective competitor
Gram-positive bacteria; extent of competition varied slightly between organisms
  competition of poly G with [35S]s-bSR-I binding to Gram-positive bacteria: competitive
P388D1 cells; poly G 2 μg/ml
  number of cell associated bacteria/100 P388D1 cells: 43±4 bacteria/100 P388D1 cells
P388D1 cells; poly G 20 μg/ml
  number of cell associated bacteria/100 P388D1 cells: 28±9 bacteria/100 P388D1 cells
P388D1 cells; poly G 200 μg/ml
  number of cell associated bacteria/100 P388D1 cells: 22±5 bacteria/100 P388D1 cells

## poly C
Soluble MSRP
  competition with binding of labeled soluble receptor to poly G beads, M-BSA beads, or LTA: failed to compete

## maleylated BSA: maleylated bovine serum albumin, MSRP ligand
Soluble MSRP
  competition with binding of labeled soluble receptor to poly G beads, M-BSA beads, or LTA: successful competitors

B1: s-bSR-I: truncated, secreted trimeric form of the type I bovine macrophage scavenger receptor containing all four extracellular domains, expressed in CHO cells (protein, UniProt P21758 77-453, looked up)
extracellular domain: KWETKNCTVGSVNADISPSPEGKGNGSEDEMRFREAVMERMSNMESRIQYLSDNEANLLDAKNFQNFSITTDQRFNDVLFQLNSLLSSIQEHENIIGDISKSLVGLNTTVLDLQFSIETLNGRVQENAFKQQEEMRKLEERIYNASAEIKSLDEKQVYLEQEIKGEMKLLNNITNDLRLKDWEHSQTLKNITLLQGPPGPPGEKGDRGPPGQNGIPGFPGLIGTPGLKGDRGISGLPGVRGFPGPMGKTGKPGLNGQKGQKGEKGSGSMQRQSNTVRLVGGSGPHEGRVEIFHEGQWGTVCDDRWELRGGLVVCRSLGYKGVQSVHKRAYFGKGTGPIWLNEVFCFGKESSIEECRIRQWGVRACSHDEDAGVTCTT
modifications: extracellular domain
notes: truncated, secreted trimeric form of the type I bovine macrophage scavenger receptor containing all four extracellular domains, expressed in CHO cells
Bacillus subtilis
  binding of [35S]s-bSR-I to Bacillus subtilis: bound
Enterococcus hirae; strain 9790, overnight 4° C., autoradiography
  binding of [35S]s-bSR-I to Enterococcus hirae: bound
Listeria monocytogenes
  binding of [35S]s-bSR-I to Listeria monocytogenes: bound
Staphylococcus aureus
  binding of [35S]s-bSR-I to Staphylococcus aureus: bound
Staphylococcus aureus; S. aureus isogenic mutants
  [35S]s-bSR-I binding, capsule-minus transposon mutants versus parent strains: equivalently or better
Streptococcus agalactiae; S. agalactiae isogenic mutants
  [35S]s-bSR-I binding, capsule-minus transposon mutants versus parent strains: equivalently or better
Streptococcus agalactiae; overnight 4° C., autoradiography
  binding of [35S]s-bSR-I to S. agalactiae: bound
Streptococcus mutans
  binding of [35S]s-bSR-I to Streptococcus mutans: bound
Streptococcus pyogenes; eleven strains, seven different M protein types (Table I), overnight 4° C., SDS-PAGE/autoradiography
  binding of [35S]s-bSR-I to S. pyogenes: bound
Streptococcus pyogenes; organisms preincubated with 50 μg/ml chloramphenicol or 0.05% NaN3, or killed at 60° C. for 10 minutes
  dependence of [35S]s-bSR-I binding on bacterial protein synthesis or viability: neither decreased
Streptococcus pyogenes; strain T1/195/2
  specificity of [35S]s-bSR-I binding to S. pyogenes: specific
Streptococcus pyogenes; type 28 strain T28/150A/5 and spontaneous M protein-negative mutant T28/51/4-4
  s-bSR-I binding, M protein-negative mutant versus parent: equivalently
Streptococcus pyogenes; wild type 87-282 and hyaluronic acid-negative transposon mutant TX4
  [35S]s-bSR-I binding, acapsular mutant versus wild type: equally well
S. pneumoniae
  binding of [35S]s-bSR-I to S. pneumoniae: minimal binding
Gram-positive bacteria
  binding of [35S]s-bSR-I to Gram-positive bacteria: bound
Gram-positive bacteria; listed as secreted Type I Bovine MSRP
  binding of [35S]s-bSR-I to Gram-positive bacteria: Bound
